Source: US20070167369A1 (published 2007)

Biological target: HUVECs
Assay: cell binding (Scatchard, Abs. 490 nm)

Kd: 1 µM
B1: Regenin (other)
chain: MGTVMDVLKGDNRFSMLVAAIQSAGLTETLNREGVYTVFAPTNEAFRALPPRERSRLLGDAKELANILKYHIGDEILVSGGIGALVRLKSLQGDKLEVSLKNNVVSVNKEPVAEPDIMATNGVVHVITNVLMGTVMDVLKGDNRFSMLVAAIQSAGLTETLNREGVYTVFAPTNEAFRALPPRERSRLLGDAKELANILKYHIGDEILVSGGIGALVRLKSLQGDKLEVSLKNNVVSVNKEPVAEPDIMATNGVVHVITNVLMGTVMDVLKGDNRFSMLVAAIQSAGLTETLNREGVYTVFAPTNEAFRALPPRERSRLLGDAKELANILKYHIGDEILVSGGIGALVRLKSLQGDKLEVSLKNNVVSVNKEPVAEPDIMATNGVVHVITNVLMGTVMDVLKGDNRFSMLVAAIQSAGLTETLNREGVYTVFAPTNEAFRALPPRERSRLLGDAKELANILKYHIGDEILVSGGIGALVRLKSLQGDKLEVSLKNNVVSVNKEPVAEPDIMATNGVVHVITNVL
